This series can be described thus: amyloid nucleation score (Sup35N fusion, yeast selection) (log enrichment); library NNK3; higher = more nucleation; inactive = no reads after selection. In a few lines:
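Using DiMSum, nucleation scores were taken as the log enrichment of output over input reads, centred on the mode score of non-aggregating sequences. The input and output reads came from Illumina sequencing of plasmid inserts, with sequences under 100 input reads excluded. The yeast were psi-negative, expressed Sup35N fused to peptides of 20 random codons, were induced with 100 μM copper sulfate for 24 hours, and were grown 7 days at 30°C on medium lacking adenine and uracil.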

± gives the uncertainty stated by the source.

For the substance TKSRIWG, the amyloid nucleation score result is “inactive”.
In turn, RYIFNQANSMVQYRFVYDVR showed an amyloid nucleation score of 1.72 ± 0.069.
Next, FDYSIGL: “inactive”; TTCCRFYREIKFFRIS: “inactive”; LNCNSESMLPLYNMVWRNRN: “inactive”.
For NGYPHLIQHYLVNAG the value was “inactive”; for FSIFSVFEPWMISKFCP, “inactive”.
Next, WHCLTVFILKYEVGFCSSLR: “inactive”; SSYYISNVSMPTFSEFVVTL: “inactive”; TVSTE: “inactive”.
As for VPKFVMDMIL, the amyloid nucleation score result is “inactive”.
Consider MSFGKSCEVKGGL, for which the amyloid nucleation score entry was “inactive”.
Regarding WSKVSHPYSALYSIMDRYT, the amyloid nucleation score entry is “inactive”.
For MGRISVLPYLKFSYAIWY, the amyloid nucleation score entry is “inactive”.
Next, IAKLVKFEEFRMQDCYIDWL: “inactive”; RCMPRCALACTRLSPGRSVV: “inactive”.
On to TFMPIGLNL, for which the amyloid nucleation score entry is “inactive”.
For SKVRTVGRLEVSVRIVKTGL the value was 0.085 ± 0.32.
For ACSRRERY the value was “inactive”.
Next, SFGFALLGVVMRITAVRYPY: “inactive”; FMSFLICNRILWSGG: “inactive”; RLIWFE: “inactive”.
In the case of VHKYMGEVLHQYFPLMLYLF, the amyloid nucleation score was 0.807 ± 0.1.
For CKHYVGLYKLTVWRFCGKNT the value was “inactive”.
For TMAYGAPLPHSTSYYITIMS the value was “inactive”; for AGDGHLSLS, “inactive”.
As for LPVEMKLLIMMRVPSFHFRH, the amyloid nucleation score entry was “inactive”.
Regarding VYRDFSGYFRLGWFDMSSVR, the amyloid nucleation score result was “inactive”.
For AIFRS the value was “inactive”; for YSVCVNAWGLSTLSTLWCTY, “inactive”.
Next, ISSLGKKTW: “inactive”; PIYMYLFSTHVSNQFVKGAF: 3.08 ± 0.06; VYLRHWAIYVIESVLQGSCR: “inactive”.
For SAWLATGTYEVKAQRG the value was “inactive”; for NFGTWDQSVLSLRMKLTCVP, “inactive”.
Turning to IFLLAVNSGINVTGCPLPKG, the amyloid nucleation score amounted to 2.28 ± 0.09.
Take FALCFKRQIGRVSRVVCHVY: the amyloid nucleation score entry is “inactive”.
Regarding GTRNMKPLTKAETSRLG, the amyloid nucleation score was found to be 0.139 ± 0.45.
Next, VVMYIRANPTDIYSYTLQPR: 1.56 ± 0.12.
For LAQSQNVVEARINSPWWDSP the value was “inactive”; for DLMLWKNFSLFTRESRGFAN, “inactive”.
In the case of QMFSLTFIVMFLFFPSRGCR, the amyloid nucleation score entry was “inactive”.
For LYLVGIMYASTQYTWRQLIN the value was “inactive”.
Consider IITYKVS, for which the amyloid nucleation score result was “inactive”.
Next, VTLTN: “inactive”; HLVCYLWE: 1.71 ± 0.093.
Next, CVSYAISNGLRMEFSKENQY: 0.415 ± 0.14; APRLFINY: “inactive”.
In turn, YVGFLSSCFF displayed an amyloid nucleation score of 1.19 ± 0.14.
For EPRRLRITCEYTVNRRLSDE the value was “inactive”; for PFHLRVMKIRLRLPVVHLKG, “inactive”; for LGLISIAESRRLSRSDSMWW, “inactive”.
For MSVDGLHCRWPSWHVKILLD the value was “inactive”; for HCVNRRKQYVRIRTYARLPC, “inactive”; for RLICLMGSLW, 1.34 ± 0.081.
For SAGTLGGYDFVYVAVDSLHR the value was “inactive”; for PKYALMRFRFYSGLR, “inactive”.
Consider TKDIMHTSSLVRWTHREAWC, for which the amyloid nucleation score result was “inactive”.
For GCFYIFRIY the value was -0.222 ± 1.3; for LPLFRISAPMVMYVLLYVPW, “inactive”; for MHPKSNGTFMFKMAN, “inactive”.
For HLCRFYSSFGDSTSSRLSGN the value was “inactive”.
Next, WYGITEIP: “inactive”; RLSMNLNTVHVKHKECVPYR: “inactive”.
As to FLFWILDALLLQVFQLSPHK, the amyloid nucleation score result is “inactive”.
Next, TGGRAPHRCVYSD: “inactive”.
HPVGACCLQLRFGLYCICVA came in with an amyloid nucleation score of 0.023 ± 0.26.
Next, PYETGRKCNA: “inactive”; LTCWSVVMFTCHP: “inactive”.
Next, DSRLE: “inactive”; VGTIVFVFSFASWPRVGYIR: “inactive”; SALLQAIF: “inactive”.
Next, LHIVNCCQPKHTRFVFQWYW: 1.89 ± 0.1.
Take NGGAHSLGK: the amyloid nucleation score entry was “inactive”.
Regarding AWKTLAHRQSWGGCNRA, the amyloid nucleation score entry was “inactive”.
Next, IGNAFFETRLVFGRH: 1.86 ± 0.081.
Next, WISFFT: “inactive”; FAFLWCLDWLNRKRIMSRVE: -1.34 ± 2.5; YGNFF: “inactive”.
For QRISMIALDRFD the value was “inactive”; for SFEYHNWNDM, 0.361 ± 0.18.
Regarding LLLTDSMSHLRFSHNSCMQQ, the amyloid nucleation score was found to be 0.868 ± 0.17.
For RQGCKVCRWLRSKSLLLRRM, the amyloid nucleation score result is “inactive”.
Next, MYWWRFVGLQSIYSGQLCKR: “inactive”; SGGKWFIFRCT: “inactive”; RYDMRVNVVFTCPWRDSNND: 0.894 ± 0.28.
Next, CSEQEACISK: “inactive”; DTSKNYAIYFGKLGDWSARS: -0.01 ± 0.96.
Take IKMSLAELTIFRCLWDCPNS: the amyloid nucleation score turned out to be 2.42 ± 0.077.
For YLDVPTCDLSMPCYDINNNL the value was “inactive”; for FTSDGEYNRVLPGRSQGASF, -0.92 ± 2.5.
In the case of SYFVAAVYYQDERNNGFCGQ, the amyloid nucleation score entry was “inactive”.
Next, RPFYLWNLNIICCPFIQTVK: 2.39 ± 0.072; RMESTYGYVLDVSIEVLWGI: “inactive”.
Next, LFFHHVKLRH: “inactive”; HTRLAPWSMDEGRAV: “inactive”; ANTFVSSWFVTTNRQKTERG: “inactive”.
Next, MVFAMTYVLCDDMWSVIGHF: 0.141 ± 0.26.
For PQHLFST, the amyloid nucleation score result is “inactive”.
Next, YFTFCDCLGQLMTRGRGCSV: “inactive”; FRSVSLWSSN: “inactive”; WFVNL: 1.38 ± 0.15.
Next, RRWCLVAIIPIELNAGTEQH: “inactive”; YANCLDNIPDRVQDMYSCFS: “inactive”.
Next, MLLSSVPDCFSWMGLRFCGD: “inactive”; YAFHKTDSCCVMCVRGPAPT: “inactive”; RGIHEIGVMLKSVSQLE: “inactive”.
As to VHVYCNWKFRDEIRANSTRR, the amyloid nucleation score entry was “inactive”.
For CWTMVASVTCYIVLLARWK the value was “inactive”; for LWKMILGTFMTQMCL, “inactive”.
For FGTSSEF the value was “inactive”.
For ASVYTN the value was “inactive”; for HAFYALDKKVPVTQLKFARQ, -0.315 ± 0.84.
The substance LFIFNGCAM gave an amyloid nucleation score of 2.31 ± 0.057.
Next, GLLSR: “inactive”; TLLLMSWHFGYMRAQF: 3.14 ± 0.05; GRSSRCWGGMCRGGNLCEEF: “inactive”.
On to SPKFVRWGRQVVSSVRA, for which the amyloid nucleation score result was “inactive”.
For FRVEFTVMFLGVCTYSGDAL the value was -0.329 ± 0.65.
As for KYGWVLFYGCYYCGHGWTNL, the amyloid nucleation score result was “inactive”.
For HNASGCWWDSALPITFRRLG the value was “inactive”; for ESMAFLRSSSLHKFVWTMYR, “inactive”.
For LDFDVGI the value was “inactive”.
For RHCGRALCDWLVIRWGSGYT the value was “inactive”.
The substance YLKWTNVVKMGHSKSSTE yielded an amyloid nucleation score of 1.29 ± 0.1.
On to FLVGPPNL, for which the amyloid nucleation score result is “inactive”.
Next, SSLSDSDGSFLDIMGAYYWA: “inactive”; YPGMQEYVLGWNVWREK: “inactive”; NLSSVSIVALLQRVPIYKYL: “inactive”.
For IHGPGCRSCERSSVGLRSGL the value was “inactive”; for LNWSKEAWCSYNILLNYGGW, “inactive”.
For IANLRAFILFMCDMKSTNPK the value was “inactive”; for HVVVKK, “inactive”.

(Values after the supplement of paper PMC12042874.)
